± gives the standard deviation of the averaged measurements.
Tested on: ATP
Assay: switch fluorescence ratio, 500 uM ATP over buffer (Cy3 cluster intensity, sum of 5 cycles each) (fold (ratio)); higher = stronger signal-on switching upon ATP binding; sequences stand for … in TCGTCGGCAGCGTCAGATGTGTATAAGAGACAGTTTTTTTTTTTTTTTTTTTTTTTTT…TC
Settings: aptamer strand: ATP DNA aptamer (quencher-CACCTGGGGGAGTATTGCGGAGGAAGG + anchor), 100 nM annealed; ATP concentration: 500 uM
Method in brief: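 Cy3-labelled switching-strand clusters on a modified Illumina MiSeq flow-cell were annealed to 100 nM quencher-labelled ATP aptamer, imaged in selection buffer, then imaged after 15 min with 500 uM ATP at 22 °C. Five buffer/ATP cycles ran, with NaOH stripping and re-annealing between them. The fluorescence ratio is summed target-cycle over summed buffer-cycle Cy3 intensity per cluster, averaged per switch-domain sequence. Clusters outside 100-1000 RFU were excluded.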
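Note: ATP exposure 15 min at 22 °C before imaging.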

Sequence	switch fluorescence ratio
TTTAGCGACG	1.069 ± 0.0098
TTTAGCGCGG	1 ± 0.029
TTTAGCTCTG	1.02 ± 0.019
TTTAGCTTAT	0.9798 ± 0.0056
TTTAGGAAAA	1 ± 0.029
TTTAGGACTT	0.994 ± 0.021
TTTAGGCAGG	0.988 ± 0.022
TTTAGGGAAT	1 ± 0.013
TTTAGGGAGG	0.974 ± 0.026
TTTAGGGATA	1.09 ± 0.19
TTTAGGGCGC	1.05 ± 0.044
TTTAGGGGAC	1 ± 0.012
TTTAGGGGGG	1.01 ± 0.099
TTTAGGGTG	1.05 ± 0.061
TTTAGGGTTA	1.01 ± 0.016
TTTAGGTTGC	0.9817 ± 0.0056
TTTAGTATGG	1.02 ± 0.042
TTTAGTATGT	1.013 ± 0.0025
TTTAGTCACT	1.03 ± 0.022
TTTAGTCGGG	1.02 ± 0.046
TTTAGTCTCA	1.017 ± 0.0089
TTTAGTGCGG	0.973 ± 0.033
TTTAGTGTCT	0.983 ± 0.021
TTTAGTGTTG	0.957 ± 0.041
TTTAGTGTTT	1.004 ± 0.007

Sequence	switch fluorescence ratio
TTTAGTTGAG	0.971 ± 0.025
TTTAGTTGGT	1 ± 0.08
TTTAGTTGTA	1.018 ± 0.0077
TTTAGTTTCG	1.02 ± 0.025
TTTATAAGAT	1.01 ± 0.012
TTTATAATTG	1.03 ± 0.028
TTTATAATTT	0.981 ± 0.018
TTTATACCGC	1.13 ± 0.071
TTTATACTCT	1.08 ± 0.026
TTTATAGAGC	1.03 ± 0.054
TTTATAGCGT	0.974 ± 0.038
TTTATAGGTC	0.994 ± 0.038
TTTATATGGC	1.03 ± 0.08
TTTATCACAG	1.014 ± 0.0041
TTTATCAGTG	0.987 ± 0.031
TTTATCCCGA	1.03 ± 0.048
TTTATCCTAG	0.976 ± 0.003
TTTATCGCAG	0.994 ± 0.039
TTTATCGTCT	1.12 ± 0.068
TTTATGAAAA	1.025 ± 0.0066
TTTATGAGAC	1.02 ± 0.065
TTTATGAGG	0.997 ± 0.019
TTTATGAGT	0.987 ± 0.022
TTTATGATCG	0.977 ± 0.039
TTTATGCTGC	1.05 ± 0.038

Sequence	switch fluorescence ratio
TTTATGGATT	1.006 ± 0.01
TTTATGGGAA	1.01 ± 0.026
TTTATGGGGA	1 ± 0.02
TTTATGGTTC	0.992 ± 0.01
TTTATGTCGG	1.004 ± 0.0091
TTTATGTCTA	1.02 ± 0.024
TTTATGTGTT	0.984 ± 0.021
TTTATGTTTT	0.965 ± 0.041
TTTATTATGA	1.01 ± 0.026
TTTATTCGAA	0.99821 ± 0.00092
TTTATTCTTT	1 ± 0.021
TTTATTGACT	1.03 ± 0.013
TTTATTGCGG	1.01 ± 0.043
TTTATTGGAC	1.01 ± 0.078
TTTATTGGCG	1.01 ± 0.035
TTTATTGTCC	0.975 ± 0.034
TTTATTGTT	0.99 ± 0.018
TTTATTTATA	1.01 ± 0.025
TTTATTTCTA	0.981 ± 0.013
TTTATTTGAA	1.01 ± 0.025
TTTATTTGGT	1.03 ± 0.041
TTTATTTTGT	1 ± 0.038
TTTATTTTTC	1.04 ± 0.046
TTTCAAAACA	1.0474 ± 0.00015
TTTCAAATTC	0.981 ± 0.026

Sequence	switch fluorescence ratio
TTTCAAGTGG	1.014 ± 0.0096
TTTCACACGG	1.04 ± 0.066
TTTCACCTTT	1.02 ± 0.047
TTTCAGAAAG	0.986 ± 0.011
TTTCAGACAT	1.016 ± 0.008
TTTCAGAGAA	1.04 ± 0.049
TTTCAGAGGG	0.992 ± 0.011
TTTCAGCCGG	1.04 ± 0.034
TTTCAGGGTT	1.03 ± 0.072
TTTCAGTCAT	0.978 ± 0.015
TTTCAGTTTT	1.1 ± 0.22
TTTCATGATG	0.998 ± 0.02
TTTCATGGCG	0.97893 ± 0.0002
TTTCATTAAA	0.994 ± 0.033
TTTCATTACT	1.04 ± 0.065
TTTCATTTAT	0.986 ± 0.021
TTTCATTTCT	1 ± 0.018
TTTCCAAAAT	0.991 ± 0.026
TTTCCAGACT	0.968 ± 0.019
TTTCCATAAG	1.007 ± 0.0022
TTTCCATTAT	1.01 ± 0.058
TTTCCATTTT	1.02 ± 0.074
TTTCCCGAGG	1.51 ± 0.55
TTTCCGGTGC	1.7 ± 0.13
TTTCCTCTCG	1.54 ± 0.76

Sequence	switch fluorescence ratio
TTTCCTTTTT	1.15 ± 0.36
TTTCGAATTC	1.006 ± 0.0084
TTTCGACAAG	1.07 ± 0.1
TTTCGAGCGT	1.01 ± 0.029
TTTCGCGGTC	1.9 ± 1.1
TTTCGGAGCC	1.16 ± 0.24
TTTCGGCGGT	1.02 ± 0.021
TTTCGGGGAA	1.06 ± 0.1
TTTCGGGGGG	1.02 ± 0.037
TTTCGGTCAC	0.983 ± 0.0036
TTTCGGTCGT	1.03 ± 0.074
TTTCGGTTAT	1.02 ± 0.021
TTTCGGTTTG	1.02 ± 0.047
TTTCGTACTC	1.09 ± 0.13
TTTCGTATGT	0.997 ± 0.05
TTTCGTCATC	1.66 ± 0.91
TTTCGTTTCT	1.03 ± 0.024
TTTCTAGTTT	0.984 ± 0.026
TTTCTATGGT	1.003 ± 0.0073
TTTCTCAGTT	0.977 ± 0.02
TTTCTCGTTT	1.006 ± 0.0072
TTTCTGCAGT	1.27 ± 0.38
TTTCTTATTC	0.983 ± 0.022
TTTCTTATTT	1 ± 0.013
TTTCTTCCCT	1.13 ± 0.11

Sequence	switch fluorescence ratio
TTTCTTCTTT	1.02 ± 0.044
TTTCTTGCGG	1.012 ± 0.0019
TTTCTTGTCT	1.01 ± 0.035
TTTCTTTCTT	1.05 ± 0.083
TTTCTTTGGG	0.998 ± 0.043
TTTCTTTGGT	1.016 ± 0.0075
TTTGAAACCA	1.01 ± 0.024
TTTGAAATAT	1.01 ± 0.013
TTTGAAGCAA	4.2 ± 3.2
TTTGAAGCCG	0.989 ± 0.024
TTTGAAGCTA	2.19 ± 1.9
TTTGAATATT	0.991 ± 0.036
TTTGACAGGG	1.02 ± 0.014
TTTGACAGTA	1.07 ± 0.061
TTTGACCGGA	1.02 ± 0.072
TTTGACGATT	1 ± 0.049
TTTGACGCGT	1.02 ± 0.016
TTTGACGGGT	1.02 ± 0.029
TTTGACGTGC	1.02 ± 0.033
TTTGACTAAG	1.06 ± 0.099
TTTGAGAATT	1.01 ± 0.032
TTTGAGAGGT	1.05 ± 0.03
TTTGAGATAG	1.02 ± 0.012
TTTGAGATGT	1.04 ± 0.0048
TTTGAGCCAC	1.05 ± 0.0095

Sequence	switch fluorescence ratio
TTTGAGGACA	1.01 ± 0.012
TTTGAGGAGC	1.035 ± 0.0028
TTTGAGGGCG	1.01 ± 0.066
TTTGAGGGCT	1.006 ± 0.0023
TTTGAGGTAG	0.98 ± 0.019
TTTGAGGTGG	1.03 ± 0.043
TTTGAGTCAT	0.9713 ± 0.0092
TTTGAGTTTG	1.009 ± 0.0056
TTTGATAATT	1.07 ± 0.15
TTTGATACAG	1.012 ± 0.0071
TTTGATATTG	0.994 ± 0.038
TTTGATCGCT	1.28 ± 0.46
TTTGATTAAT	0.987 ± 0.011
TTTGATTCGG	0.983 ± 0.017
TTTGATTGGA	1.02 ± 0.011
TTTGATTGGG	1.01 ± 0.037
TTTGATTGTT	0.97 ± 0.043
TTTGCAAAAA	1.06 ± 0.082
TTTGCAAGGA	1.02 ± 0.045
TTTGCAATG	2.22 ± 1.6
TTTGCAGTTC	1.3 ± 0.32
TTTGCATTCT	1.004 ± 0.0078
TTTGCCAAAA	1.14 ± 0.23
TTTGCCGAGG	1.01 ± 0.015
TTTGCCGTTC	1.01 ± 0.042

Sequence	switch fluorescence ratio
TTTGCCTTGC	1.11 ± 0.067
TTTGCCTTGG	1.02 ± 0.018
TTTGCGACGT	1.02 ± 0.025
TTTGCGACTG	1.03 ± 0.015
TTTGCGGGAC	1.57 ± 0.47
TTTGCGGGGG	1.01 ± 0.035
TTTGCGGGGT	1.03 ± 0.034
TTTGCGTTAC	1.58 ± 0.053
TTTGCTACGT	1.01 ± 0.051
TTTGCTAG	1.013 ± 0.0095
TTTGCTATAG	1.23 ± 0.28
TTTGCTGTAT	0.9747 ± 0.0032
TTTGCTTAAT	1.02 ± 0.044
TTTGCTTTCT	1.02 ± 0.023
TTTGCTTTTC	0.994 ± 0.05
TTTGCTTTTT	1 ± 0.036
TTTGGAAAGG	0.977 ± 0.046
TTTGGAAAGT	0.991 ± 0.025
TTTGGAATCG	1.01 ± 0.046
TTTGGACAGG	1.004 ± 0.0071
TTTGGAGAAA	0.989 ± 0.022
TTTGGAGGCT	1.02 ± 0.063
TTTGGAGTTT	0.987 ± 0.053
TTTGGATATT	1.03 ± 0.095
TTTGGATCTG	1.034 ± 0.0094

— the supplement of paper PMC10126150
